The values below come from article doi:10.1101/2023.02.11.528153.

For this series, the target named is MERS-CoV spike RBD fragment (human betacoronavirus 2c EMC/2012 …, UniProt K0BRG7 367-606). The experiment in a line: MST.

B1: Labeled complementary strand (ssDNA)
DNA: ACATAGGCGTT
Take B1: the binding result is on record as “no binding”.
